From patent US20030125296, “Insulin-responsive DNA binding protein-1 and methods to regulate insulin-responsive genes” (published 2003)

B1: IGFBP-3 IRE oligo (Example 7) (dsDNA)
DNA 1: AATTCAAGGGTATCCAGGAAAGTCTCCTTCAAG
DNA 2: CTTGAAGGAGACTTTCCTGGATACCCTTGAATT
B2: NFkB consensus (dsDNA)
DNA 1: GGGACTTTCCGGGACTTTCC
DNA 2: GGAAAGTCCCGGAAAGTCCC

Experiments:
[1] = target: T1, IRDBP-1 C-terminal 1503 bp coding region (Trx-IRDBP-1) (Rattus norvegicus, UniProt Q5ZQU0 SEQ:548-1047); test: EMSA; self-competed; supershifted by anti-IRDBP-1 cAb; printed probe sequence from Example 7; settings: tags: His6-thioredoxin fusion (pET-32a)
Text: (§1) This band was competed by the IGFBP-3 IRE, but not by the unrelated NFκB oligonucleotide (FIG. 26, left panel). In addition, the gel-shift band was supershifted with the anti-IRDBP-1 cAb antibody, but not with preimmune serum (FIG. 26, right panel).

[2] = target: T1, IRDBP-1 C-terminal 1503 bp coding …; test: competition; did not compete IGFBP-3 IRE band; settings: tags: His6-thioredoxin fusion (pET-32a)
Text: as §1

T1 sequence (Q5ZQU0 904-1403): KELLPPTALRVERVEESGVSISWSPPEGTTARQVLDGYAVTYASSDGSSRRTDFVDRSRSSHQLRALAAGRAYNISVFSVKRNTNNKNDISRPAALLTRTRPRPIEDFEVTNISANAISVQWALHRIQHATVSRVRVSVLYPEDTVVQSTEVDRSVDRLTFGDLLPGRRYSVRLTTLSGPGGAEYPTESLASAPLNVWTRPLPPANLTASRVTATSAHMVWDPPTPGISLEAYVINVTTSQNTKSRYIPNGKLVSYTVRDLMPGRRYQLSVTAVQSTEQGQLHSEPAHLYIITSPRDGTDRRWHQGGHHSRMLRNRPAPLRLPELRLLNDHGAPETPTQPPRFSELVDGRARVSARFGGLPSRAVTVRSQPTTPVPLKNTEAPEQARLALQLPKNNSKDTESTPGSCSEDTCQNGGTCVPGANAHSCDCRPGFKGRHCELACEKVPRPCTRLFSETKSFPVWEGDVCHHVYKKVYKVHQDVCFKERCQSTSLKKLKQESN

Row | Binder | binding result [1] | binding result [2]
1 | B1 | binds | –
2 | B2 | – | no binding
